Laboratory results reported in paper PMC12752688.

How the values were obtained:
[1] = target: ribosome-nascent chain complex (not stated | E. coli) (UniProt P0ADZ0); test: high-speed AFM (HS-AFM); RNC (2 nM) on mica, TF (1 uM) in the imaging solution, physiological buffer; 1 frame/s, 22-25 °C; dwell time analysis of single binding events
[2] = target: native 70S ribosome from E. coli (E. coli) (UniProt P0ADZ0); test: high-speed AFM (HS-AFM); 70S ribosomes without nascent chain partially immobilised on mica, TF in the imaging solution at a molar ratio of 200:1 TF:ribosome; 1 frame/s, 22-25 °C
Trigger Factor = Trigger Factor (UniProt P0A850); test: high-speed AFM (HS-AFM); TF alone at 5 uM on mica; projected area and height compared with monomers
[3] = target: Trigger factor (Escherichia coli) (UniProt P0A850); conditions: cited from earlier work

Trigger Factor (from UniProt P0A850 1-432) (natural protein), sequence (P0A850 whole entry): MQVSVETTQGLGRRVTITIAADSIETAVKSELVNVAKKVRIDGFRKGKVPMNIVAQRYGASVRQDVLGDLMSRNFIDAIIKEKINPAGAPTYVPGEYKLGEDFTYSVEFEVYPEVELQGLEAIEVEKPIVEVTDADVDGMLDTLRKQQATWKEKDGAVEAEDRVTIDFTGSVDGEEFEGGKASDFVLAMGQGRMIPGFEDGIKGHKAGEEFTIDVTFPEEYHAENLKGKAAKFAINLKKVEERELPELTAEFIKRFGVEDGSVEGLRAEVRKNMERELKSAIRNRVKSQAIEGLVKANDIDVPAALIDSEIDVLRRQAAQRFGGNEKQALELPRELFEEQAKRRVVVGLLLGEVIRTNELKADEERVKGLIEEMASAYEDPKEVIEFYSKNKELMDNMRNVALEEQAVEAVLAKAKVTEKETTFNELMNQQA
Trigger factor, sequence (P0A850 whole entry): as above

| duration of association [1] [s] | duration of individual binding events [1] [s] | longest interaction time (exit-tunnel site) [1] [s] | longest interaction time (peripheral site) [1] [s] | mean interaction time (exit-tunnel site) [1] [s] | mean interaction time (peripheral site) [1] [s] | stoichiometry N [1] | duration of association [2] [s] | stoichiometry N (Trigger Factor) | Substance | Kd [3] [µM] |
| --- | --- | --- | --- | --- | --- | --- | --- | --- | --- | --- |
| > 5 | > 30 | < 80 | > 30 | 8 | 3.9 | 2 | < 5 | 2 | Trigger Factor (from UniProt P0A850 1-432) (natural protein) |  |
|  |  |  |  |  |  |  |  |  | Trigger factor (from UniProt P0A850) | 1.5 |
